Patent US20260242478A1 (published 2026)
Where two headings read alike, the source gives them in different places. Where no end group is shown, it is not given here.

Experiments:
Peptide-180 [1] = target: T1, Peptide-180 (cysteine pairing not given here; also: biotinylated (site not given here)); assay: BLI (Octet), biotinylated peptide on streptavidin sensor, PSMA Fab titrated, 1:1 model
T1 construct: PSMA peptide mask (P2)
T1 peptide: IAVLCQPNWMCAGF

Peptide-194 = target: T2, Peptide-194 (cysteine pairing not given here; also: biotinylated (site not given here)); assay: as above
T2 construct: PSMA peptide mask (P2)
T2 peptide: SKLLCVPPWMCYHV

Peptide-179 [2] = target: T3, Peptide-179 (cysteine pairing not given here; also: biotinylated (site not given here)); assay: as above
T3 construct: PSMA peptide mask (P2)
T3 peptide: LMKWCTPRWMCAAE

Peptide-204 = target: T4, Peptide-204 (cysteine pairing not given here; also: biotinylated (site not given here)); assay: as above
T4 construct: PSMA peptide mask (P2)
T4 peptide: QCTWNEKTWWMECE

Peptide-202 = target: T5, Peptide-202 (cysteine pairing not given here; also: biotinylated (site not given here)); assay: as above
T5 construct: PSMA peptide mask (P2)
T5 peptide: MCQWDELNYWMDCD

Peptide-205 = target: T6, Peptide-205 (cysteine pairing not given here; also: biotinylated (site not given here)); assay: as above
T6 construct: PSMA peptide mask (P2)
T6 peptide: MCQWDKINYWMDCD

Peptide-179 [3] = target: T3, Peptide-179; assay: ELISA, biotinylated peptide captured on neutravidin, PSMA Fab titrated
Peptide-180 [4] = target: T1, Peptide-180; assay: as above
Peptide-179 [5] = target: T3, Peptide-179; assay: as above
Peptide-181 = target: T7, Peptide-181 (cysteine pairing not given here; also: biotinylated (site not given here)); assay: as above
T7 construct: PSMA peptide mask (P2)
T7 peptide: PELRCVPFWMCSFN

B1: PSMA Fab (SEQ ID NOs: 19, 20) (Fab, V domains shown)
VH: QVQLVESGGGVVQPGRSLRLSCAASGFAFSRYGMHWVRQAPGKGLEWVAVIWYDGSNKYYADSVKGRFTISRDNSKNTQYLQMNSLRAEDTAVYYCARGGDFLYYYYYGMDVWGQGTTVTVSS
VL: DIQMTQSPSSLSASVGDRVTITCRASQGISNYLAWYQQKTGKVPKFLIYEASTLQSGVPSRFSGGGSGTDFTLTISSLQPEDVATYYCQNYNSAPFTFGPGTKVDIKR
notes: also called 006 PSMA Fab; anti-PSMA Fab
Off rate t1/2 (Peptide-180 [1]): 0.75 min
Off rate t1/2 (Peptide-194): < 1 min
Off rate t1/2 (Peptide-179 [2]): 1.09 min
Off rate t1/2 (Peptide-204): < 1 min
Off rate t1/2 (Peptide-202): < 1 min
Off rate t1/2 (Peptide-205): < 1 min
EC50 (Peptide-179 [3]): 120 nM
EC50 (Peptide-180 [4]): 33 nM
EC50 (Peptide-179 [5]): 5.9 nM
EC50 (Peptide-181): 3 nM
